B1: Escherichia coli RecO protein (natural protein, E. coli, UniProt P0A7H3 1-242, looked up)
chain: MEGWQRAFVLHSRPWSETSLMLDVFTEESGRVRLVAKGARSKRSTLKGALQPFTPLLLRFGGRGEVKTLRSAEAVSLALPLSGITLYSGLYINELLSRVLEYETRFSELFFDYLHCIQSLAGVTGTPEPALRRFELALLGHLGYGVNFTHCAGSGEPVDDTMTYRYREEKGFIASVVIDNKTFTGRQLKALNAREFPDADTLRAAKRFTRMALKPYLGGKPLKSRELFRQFMPKRTVKTHYE
notes: RecO, recombination mediator protein of the RecF pathway, E. coli; also called E. coli RecO; source: E. coli BL21(DE3) pLysS, plasmid pMCSG7, purified (Ni-NTA, HiTrap Heparin HP) after His-tag cleavage with TEV protease
B3: Escherichia coli RecR protein (natural protein, E. coli, UniProt P0A7H6 1-201, looked up)
chain: MQTSPLLTQLMEALRCLPGVGPKSAQRMAFTLLQRDRSGGMRLAQALTRAMSEIGHCADCRTFTEQEVCNICSNPRRQENGQICVVESPADIYAIEQTGQFSGRYFVLMGHLSPLDGIGPDDIGLDRLEQRLAEEKITEVILATNPTVEGEATANYIAELCAQYDVEASRIAHGVPVGGELEMVDGTTLSHSLAGRHKIRF
notes: RecR, recombination mediator protein, E. coli; in the complex with RecO found here it is a tetramer (RecR4O); also called E. coli RecR; source: E. coli BL21 Rosetta 2(DE3)pLysS, plasmid pMCSG7, purified (Ni-NTA), His-tag cleaved with TEV protease

For series [1], the target named is SSB-Ct peptide C-terminal tail (Escherichia coli) (UniProt P0AGE0). The experiment in a line: given as Ka. To be noted: cited from earlier work.
Sequence of SSB-Ct peptide C-terminal tail (Escherichia coli) (P0AGE0 whole entry, looked up): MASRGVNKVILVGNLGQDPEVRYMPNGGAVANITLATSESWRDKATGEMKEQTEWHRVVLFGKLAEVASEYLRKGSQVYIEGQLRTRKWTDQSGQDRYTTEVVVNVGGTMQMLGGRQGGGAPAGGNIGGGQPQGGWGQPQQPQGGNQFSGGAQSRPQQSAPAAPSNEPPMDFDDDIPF
Series [2] concerns the target B3. The experiment in a line: AUC; sedimentation equilibrium, 18 000, 23 000 and 28 000 rpm, 25°C, buffer BTP; RecO 2.24 uM, RecR 8.96 uM, SSB-Ct 13.4 uM, Cy3-(dT)15 0.56 uM; absorbance of the Cy3-DNA at 546 nm; one-species fit. The conditions noted are these: both partners purified.
The target of series [3] is T1, RecO;RecR (Escherichia coli;Escherichia coli, UniProt P0A7H3;P0A7H6 1-242;1-201, |).
T1 sequence 1: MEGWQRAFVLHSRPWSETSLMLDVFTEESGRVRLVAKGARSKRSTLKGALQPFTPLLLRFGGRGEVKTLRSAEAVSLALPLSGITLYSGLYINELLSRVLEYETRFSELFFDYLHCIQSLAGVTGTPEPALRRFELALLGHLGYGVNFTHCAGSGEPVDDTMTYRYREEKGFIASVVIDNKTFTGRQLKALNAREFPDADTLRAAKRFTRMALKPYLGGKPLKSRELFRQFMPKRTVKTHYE
T1 sequence 2: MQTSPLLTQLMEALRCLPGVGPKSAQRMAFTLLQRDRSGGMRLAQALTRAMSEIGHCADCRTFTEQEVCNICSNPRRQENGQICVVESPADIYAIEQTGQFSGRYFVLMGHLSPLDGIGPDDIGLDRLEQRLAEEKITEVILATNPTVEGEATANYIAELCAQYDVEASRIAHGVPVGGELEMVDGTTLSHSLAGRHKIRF
In words: AUC sedimentation velocity; no SSB-Ct; 6.3 S; Buffer BTP: 20 mM Bis-Tris propane pH 8.0, 50 mM NaCl, 25% (v/v) glycerol, 1 mM TCEP, 25 C. To be noted: protein: recombinant;recombinant; tags: His-tag cleaved with TEV (pMCSG7);His-tag cleaved with TEV (pMCSG7); label: 3'-Cy3.

The target of series [4] is T2, RecO;SSB-Ct peptide (P15) (Escherichia coli;Escherichia coli, UniProt P0A7H3;P0AGE0 1-242;, |). In words: AUC sedimentation velocity; 13.4 uM SSB-Ct; 1.9 S; Buffer BTP: 20 mM Bis-Tris propane pH 8.0, 50 mM NaCl, 25% (v/v) glycerol, 1 mM TCEP, 25 C. The conditions noted are these: tags: His-tag cleaved with TEV (pMCSG7);; copies: 1;1; label: 3'-Cy3.
Series [5] has as its target T3, RecO;RecR;SSB-Ct peptide (P15) (Escherichia coli;Escherichia …, UniProt P0A7H3;P0A7H6;P0AGE0 1-242;1-201;, ||). The experiment in a line: AUC sedimentation velocity; 13.4 uM SSB-Ct; 4.7 S; Buffer BTP: 20 mM Bis-Tris propane pH 8.0, 50 mM NaCl, 25% (v/v) glycerol, 1 mM TCEP, 25 C. The conditions noted are these: tags: His-tag cleaved with TEV (pMCSG7);His-tag cleaved with TEV (pMCSG7);; label: 3'-Cy3.

Series [6] concerns the molecule itself. In words: AUC; sedimentation equilibrium, 18 000, 23 000 and 28 000 rpm, 25°C, buffer BTP; RecO 2.24 uM, RecR 8.96 uM, SSB-Ct 13.4 uM, Cy3-(dT)15 0.56 uM; absorbance of the Cy3-DNA at 546 nm; one-species fit.
Series [7] addresses B1. In words: AUC; sedimentation velocity, 42,000 rpm, 25°C, buffer BTP; RecO 2.24 uM, RecR 8.96 uM, Cy3-(dT)L (L = 15, 35, 68, 140) 0.56 uM, in the absence and presence of SSB-Ct 13.4 uM; absorbance of the Cy3-DNA at 546 nm; c(s) distributions. The conditions noted are these: both partners purified.
The target in series [8] is T1, RecO;RecR. The experiment in a line: AUC sedimentation velocity; no SSB-Ct; 2.9 S; Buffer BTP: 20 mM Bis-Tris propane pH 8.0, 50 mM NaCl, 25% (v/v) glycerol, 1 mM TCEP, 25 C. To be noted: protein: recombinant;recombinant; tags: His-tag cleaved with TEV (pMCSG7);His-tag cleaved with TEV (pMCSG7); label: 3'-Cy3.
The target in series [9] is T2, RecO;SSB-Ct peptide (P15). The experiment in a line: AUC sedimentation velocity and equilibrium; 13.4 uM SSB-Ct; 0.7 S; 31.8 kDa, 1 RecO per DNA; Buffer BTP: 20 mM Bis-Tris propane pH 8.0, 50 mM NaCl, 25% (v/v) glycerol, 1 mM TCEP, 25 C. The conditions noted are these: tags: His-tag cleaved with TEV (pMCSG7);; copies: 1;1; label: 3'-Cy3.
Series [10] concerns the target T3, RecO;RecR;SSB-Ct peptide (P15). The experiment in a line: AUC sedimentation velocity and equilibrium; 13.4 uM SSB-Ct; 2.6 S; 131.1 kDa, RecR4O with one DNA; Buffer BTP: 20 mM Bis-Tris propane pH 8.0, 50 mM NaCl, 25% (v/v) glycerol, 1 mM TCEP, 25 C. To be noted: tags: His-tag cleaved with TEV (pMCSG7);His-tag cleaved with TEV (pMCSG7);; label: 3'-Cy3.
The target in series [11] is T1, RecO;RecR. The experiment in a line: AUC sedimentation velocity; no SSB-Ct; 5.4 S; Buffer BTP: 20 mM Bis-Tris propane pH 8.0, 50 mM NaCl, 25% (v/v) glycerol, 1 mM TCEP, 25 C. To be noted: protein: recombinant;recombinant; tags: His-tag cleaved with TEV (pMCSG7);His-tag cleaved with TEV (pMCSG7); label: 3'-Cy3.
The target in series [12] is T3, RecO;RecR;SSB-Ct peptide (P15). The experiment in a line: AUC sedimentation velocity; 13.4 uM SSB-Ct; 3.8 S; Buffer BTP: 20 mM Bis-Tris propane pH 8.0, 50 mM NaCl, 25% (v/v) glycerol, 1 mM TCEP, 25 C. The conditions noted are these: tags: His-tag cleaved with TEV (pMCSG7);His-tag cleaved with TEV (pMCSG7);; label: 3'-Cy3.
For series [13], the target named is T2, RecO;SSB-Ct peptide (P15). The experiment in a line: AUC sedimentation velocity and equilibrium; 13.4 uM SSB-Ct; 1.2 S; 70.1 kDa, 2 RecO per DNA; Buffer BTP: 20 mM Bis-Tris propane pH 8.0, 50 mM NaCl, 25% (v/v) glycerol, 1 mM TCEP, 25 C. To be noted: tags: His-tag cleaved with TEV (pMCSG7);; copies: 1;1; label: 3'-Cy3.
The target of series [14] is T1, RecO;RecR. In words: AUC sedimentation velocity; no SSB-Ct; 5.7 S; Buffer BTP: 20 mM Bis-Tris propane pH 8.0, 50 mM NaCl, 25% (v/v) glycerol, 1 mM TCEP, 25 C. To be noted: protein: recombinant;recombinant; tags: His-tag cleaved with TEV (pMCSG7);His-tag cleaved with TEV (pMCSG7); label: 3'-Cy3.
The target in series [15] is T2, RecO;SSB-Ct peptide (P15). In words: AUC sedimentation velocity; 13.4 uM SSB-Ct; 2.1 S; Buffer BTP: 20 mM Bis-Tris propane pH 8.0, 50 mM NaCl, 25% (v/v) glycerol, 1 mM TCEP, 25 C. To be noted: tags: His-tag cleaved with TEV (pMCSG7);; copies: 1;1; label: 3'-Cy3.
Series [16] addresses T3, RecO;RecR;SSB-Ct peptide (P15). In words: AUC sedimentation velocity; 13.4 uM SSB-Ct; 4.8 S; Buffer BTP: 20 mM Bis-Tris propane pH 8.0, 50 mM NaCl, 25% (v/v) glycerol, 1 mM TCEP, 25 C. To be noted: tags: His-tag cleaved with TEV (pMCSG7);His-tag cleaved with TEV (pMCSG7);; label: 3'-Cy3.
The target in series [17] is B1. In words: AUC; sedimentation equilibrium, 18 000, 23 000 and 28 000 rpm, 25°C, buffer BTP (pH 8.0, 50 mM NaCl, 25% glycerol, 1 mM TCEP); RecO 2.24 uM, SSB-Ct 13.4 uM, Cy3-(dT)15 or Cy3-(dT)35 0.56 uM; absorbance of the Cy3-DNA at 546 nm; one-species fit. The conditions noted are these: both partners purified.
The target in a further series is T4, RecO (Escherichia coli, UniProt P0A7H3 1-242).
T4 sequence: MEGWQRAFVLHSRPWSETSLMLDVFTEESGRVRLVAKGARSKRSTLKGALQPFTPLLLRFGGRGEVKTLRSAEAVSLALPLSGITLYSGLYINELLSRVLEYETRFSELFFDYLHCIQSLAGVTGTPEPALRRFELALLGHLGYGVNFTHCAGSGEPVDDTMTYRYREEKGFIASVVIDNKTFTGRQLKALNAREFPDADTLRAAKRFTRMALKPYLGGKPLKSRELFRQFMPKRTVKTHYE
The experiment in a line: light scattering; no SSB-Ct; onset at RecO/DNA 6; Buffer BTP: 20 mM Bis-Tris propane pH 8.0, 50 mM NaCl, 25% (v/v) glycerol, 1 mM TCEP, 25 C. The conditions noted are these: protein: recombinant; tags: His-tag cleaved with TEV (pMCSG7).

The values that follow come from paper PMC10018359, “Allosteric effects of E. coli SSB and RecR proteins on RecO protein binding to DNA” (Nucleic Acids Research, 2023).

In general, Kd refers to the equilibrium constant for the complex coming apart. Take RecO (from UniProt P0A7H3): the Kd in [1] was 83.3 nM.
By stoichiometry N is commonly meant the number of molecules, sites or subunits per partner or assembly. Regarding B1, in [2], the “stoichiometry N” value stood at 1 RecO per RecR tetramer.

B2: Cy3-(dT)68 (ssDNA)
DNA: TTTTTTTTTTTTTTTTTTTTTTTTTTTTTTTTTTTTTTTTTTTTTTTTTTTTTTTTTTTTTTTTTTTT
As to B2, the binding result (with RecO;RecR [3]; in series [4]; in series [5]) was “binds” throughout.
As to B3, the “stoichiometry N” value in series [6] came out at 4. Moreover, the binding result in series [7] is listed as “binds”.
Turning to TTTTTTTTTTTTTTT (ssDNA) [Cy3-(dT)15], the binding result (with RecO;RecR [8]; in series [9]; in [10]) was “binds” in each case.
Consider TTTTTTTTTTTTTTTTTTTTTTTTTTTTTTTTTTT (ssDNA) [Cy3-(dT)35], for which the binding result (with RecO;RecR [11]; in series [12]; in series [13]) was “binds” in each case.

B4: Cy3-(dT)140 (ssDNA)
DNA: TTTTTTTTTTTTTTTTTTTTTTTTTTTTTTTTTTTTTTTTTTTTTTTTTTTTTTTTTTTTTTTTTTTTTTTTTTTTTTTTTTTTTTTTTTTTTTTTTTTTTTTTTTTTTTTTTTTTTTTTTTTTTTTTTTTTTTTTTTTT
As to B4, the binding result (with RecO;RecR [14]; in series [15]; in [16]) was “binds” each time.
With PSNEPPMDFDDDIPF (source: bought: WatsonBio (Houston, TX)) [SSB-Ct peptide, composed of the 15 C-terminal amino acids of E. coli SSB], the binding result in series [17] was “binds”.

B5: (dT)70 (ssDNA)
DNA: TTTTTTTTTTTTTTTTTTTTTTTTTTTTTTTTTTTTTTTTTTTTTTTTTTTTTTTTTTTTTTTTTTTTTT
Regarding B5, in the series with RecO, the binding result is recorded as “binds”.
